Laboratory results taken from paper PMC6726633, “Different Grp94 components interact transiently with the myocilin olfactomedin domain in vitro to enhance or retard its amyloid aggregation” (Scientific Reports, 2019).

T1: Myocilin olfactomedin domain, residues 228-504 (human), Q99972
T1 chain: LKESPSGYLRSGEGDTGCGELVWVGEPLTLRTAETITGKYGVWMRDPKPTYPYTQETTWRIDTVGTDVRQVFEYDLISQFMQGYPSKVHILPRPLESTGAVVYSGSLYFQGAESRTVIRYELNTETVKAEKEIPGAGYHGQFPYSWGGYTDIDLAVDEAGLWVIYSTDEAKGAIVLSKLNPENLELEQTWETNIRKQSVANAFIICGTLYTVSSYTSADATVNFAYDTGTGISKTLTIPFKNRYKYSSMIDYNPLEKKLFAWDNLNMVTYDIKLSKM

B1: Myocilin olfactomedin domain, residues 228-504, Q99972 228-504 (domain or fragment)
chain: T1 chain
B2: Dansylated myocilin olfactomedin domain (domain or fragment, human, UniProt Q99972 228-504, looked up)
chain: T1 chain
modifications: dansyl (~2 dansyl modifications per OLFd by MS), sites not stated
notes: Myocilin C-terminal olfactomedin (OLF) domain, Homo sapiens, residues 228-504; Same construct as m7, chemically labelled; also called OLFd; dansyl-modified OLF
B3: Myocilin olfactomedin domain, residues 228-504 (domain or fragment, human, UniProt Q99972 228-504, looked up)
chain: T1 chain
notes: Myocilin C-terminal olfactomedin (OLF) domain, Homo sapiens, residues 228-504; The results call S233 the N-terminal residue of the OLF construct, though the methods give residues 228-504 and a cross-link at K229 is reported; also called wild-type OLF

What was measured:
[1] = molecular target: T1, Myocilin olfactomedin domain, residues …; assay: cross-linking; OLF-only control samples of the BS3(d0/d4) cross-linking experiments, PBS; SDS-PAGE and LC-MS; settings: remark: other sources report otherwise
[2] = molecular target: T2, Grp94 N and middle domains, residues 22-594 (human, UniProt P14625 22-594); assay: cross-linking; Grp94N, Grp94NM or Grp94MC:OLF 1:1, OLF 100 μM (dansylated or label-free), PBS, 10 mM BS3(d0/d4) 3 h at 37 °C; SDS-PAGE (Coomassie, dansyl fluorescence), in-gel digestion and LC-MS; settings: both partners purified
T2 construct: Grp94, Homo sapiens, residues 22-594 (STOP codon installed after position 594 on the Grp94FL template); Tag removed with TEV protease; also called Grp94NM; NM; source: E. coli BL21(DE3), purified (HisTrap, SEC, TEV cleavage, SEC); not shown: His6, N-terminal, cleaved

[3] = molecular target: T3, Grp94 N-terminal nucleotide-binding domain (including Pre-N), residues 22-337 (human, UniProt P14625 22-337); assay: co-sedimentation; after the ThT aggregation assay (Grp94 construct 3 μM, OLF 30 μM, PBS, 42 °C, up to 96 h): centrifugation 10 min at 17,000 x g; supernatant, wash and pellet on 12% reducing SDS-PAGE, Coomassie, densitometry; only samples containing OLF gave pellets; settings: both partners purified
T3 construct: Grp94, Homo sapiens, residues 22-337 (STOP codon installed after position 337 on the Grp94FL template); Tag removed with TEV protease; also called N domain; source: E. coli BL21(DE3), purified (HisTrap, SEC, TEV cleavage, SEC); not shown: His6, N-terminal, cleaved

[4] = molecular target: T4, Grp94 Pre-N truncation variant, residues 58-804 (canine) (Canis lupus familiaris, UniProt P41148 58-804); assay: as above; settings: both partners purified
T4 construct: C-terminal 6xHis tag is non-cleavable; not shown: His6, C-terminal, kept

[5] = molecular target: T5, Grp94 Pre-N truncation variant, residues 73-804 (canine) (Canis lupus familiaris, UniProt P41148 73-804); assay: as above; settings: both partners purified
T5 construct: C-terminal 6xHis tag is non-cleavable; not shown: His6, C-terminal, kept
T5 sequence (P41148 73-804, change not shown): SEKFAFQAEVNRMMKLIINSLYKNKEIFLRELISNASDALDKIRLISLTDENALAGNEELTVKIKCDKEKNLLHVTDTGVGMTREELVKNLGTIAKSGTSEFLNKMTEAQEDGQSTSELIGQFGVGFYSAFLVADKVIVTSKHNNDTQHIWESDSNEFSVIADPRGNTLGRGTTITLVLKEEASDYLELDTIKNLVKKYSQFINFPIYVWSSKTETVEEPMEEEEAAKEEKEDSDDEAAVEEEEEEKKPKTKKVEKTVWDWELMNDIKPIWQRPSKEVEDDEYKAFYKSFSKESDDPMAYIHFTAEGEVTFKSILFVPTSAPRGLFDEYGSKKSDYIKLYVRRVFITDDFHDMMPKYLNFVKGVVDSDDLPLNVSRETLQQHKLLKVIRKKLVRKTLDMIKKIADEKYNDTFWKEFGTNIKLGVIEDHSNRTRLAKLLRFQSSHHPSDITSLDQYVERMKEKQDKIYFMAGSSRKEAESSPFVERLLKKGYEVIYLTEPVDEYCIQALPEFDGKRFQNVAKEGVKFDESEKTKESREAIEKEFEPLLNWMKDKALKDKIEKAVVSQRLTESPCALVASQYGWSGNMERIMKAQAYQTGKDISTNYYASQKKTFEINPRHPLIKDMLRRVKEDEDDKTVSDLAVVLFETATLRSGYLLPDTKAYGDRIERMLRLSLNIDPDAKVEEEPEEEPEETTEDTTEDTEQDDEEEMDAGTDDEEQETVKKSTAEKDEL

T2 sequence (P14625 22-594): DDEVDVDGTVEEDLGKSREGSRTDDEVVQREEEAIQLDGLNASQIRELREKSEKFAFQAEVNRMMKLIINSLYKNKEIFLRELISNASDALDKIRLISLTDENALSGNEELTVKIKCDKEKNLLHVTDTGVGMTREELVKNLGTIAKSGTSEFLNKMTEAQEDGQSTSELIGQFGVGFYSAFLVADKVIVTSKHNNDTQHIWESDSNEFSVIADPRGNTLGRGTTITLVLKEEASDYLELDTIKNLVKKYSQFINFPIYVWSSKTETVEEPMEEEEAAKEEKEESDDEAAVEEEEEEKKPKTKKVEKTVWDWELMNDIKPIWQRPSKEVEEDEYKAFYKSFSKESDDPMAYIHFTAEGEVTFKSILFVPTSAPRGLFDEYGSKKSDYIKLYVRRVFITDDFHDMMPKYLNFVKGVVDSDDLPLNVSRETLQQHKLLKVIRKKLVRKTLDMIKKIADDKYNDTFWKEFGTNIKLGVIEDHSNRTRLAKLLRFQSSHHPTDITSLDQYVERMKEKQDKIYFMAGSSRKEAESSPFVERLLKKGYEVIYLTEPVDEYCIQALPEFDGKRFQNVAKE
T4 sequence (P41148 58-804, change not shown): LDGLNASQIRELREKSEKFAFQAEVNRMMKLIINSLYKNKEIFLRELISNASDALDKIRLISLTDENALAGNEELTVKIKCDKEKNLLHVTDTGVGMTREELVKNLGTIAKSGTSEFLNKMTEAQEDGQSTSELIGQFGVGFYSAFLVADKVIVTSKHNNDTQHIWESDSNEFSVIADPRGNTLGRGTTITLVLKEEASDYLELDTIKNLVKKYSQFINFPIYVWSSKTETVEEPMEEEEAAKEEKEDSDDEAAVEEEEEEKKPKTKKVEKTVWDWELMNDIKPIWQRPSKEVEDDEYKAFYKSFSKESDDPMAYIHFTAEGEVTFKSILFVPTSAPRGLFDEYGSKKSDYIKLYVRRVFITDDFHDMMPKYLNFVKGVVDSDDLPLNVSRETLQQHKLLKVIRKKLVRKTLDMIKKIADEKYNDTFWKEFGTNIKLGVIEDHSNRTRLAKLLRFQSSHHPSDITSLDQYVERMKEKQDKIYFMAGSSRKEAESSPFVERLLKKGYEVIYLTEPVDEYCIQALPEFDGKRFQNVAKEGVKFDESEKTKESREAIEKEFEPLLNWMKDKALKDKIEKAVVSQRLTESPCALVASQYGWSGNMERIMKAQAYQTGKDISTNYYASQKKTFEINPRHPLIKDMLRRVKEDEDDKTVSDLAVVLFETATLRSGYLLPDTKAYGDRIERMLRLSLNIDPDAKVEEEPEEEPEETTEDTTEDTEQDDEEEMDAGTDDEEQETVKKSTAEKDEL
T3 sequence (P14625 22-337): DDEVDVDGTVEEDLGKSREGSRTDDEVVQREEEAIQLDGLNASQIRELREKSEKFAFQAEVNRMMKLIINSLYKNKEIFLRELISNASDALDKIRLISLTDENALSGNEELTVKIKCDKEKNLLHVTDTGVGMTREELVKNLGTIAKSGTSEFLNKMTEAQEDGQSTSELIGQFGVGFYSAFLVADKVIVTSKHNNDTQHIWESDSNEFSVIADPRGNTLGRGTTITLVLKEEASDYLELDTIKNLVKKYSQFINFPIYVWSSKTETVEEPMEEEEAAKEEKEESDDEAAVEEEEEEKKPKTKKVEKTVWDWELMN

Binder | stoichiometry N [1] | binding result [2] | binding result [3] | binding result [4] | binding result [5]
B1 | 2 |  |  |  | 
B2 |  | binds |  |  | 
B3 |  | binds | binds | binds | binds
